Laboratory results taken from US20210063414A1, “METHODS FOR PREVENTING AND/OR TREATING BONE LOSS CONDITIONS BY MODULATING IRISIN” (Dana-Farber Cancer Institute, Inc., priority 2018, published 2021).

Target: T1, MLO-Y4 cell surface proteins (Mus musculus, UniProt P41216)
T1 construct: endogenous in cells; host or cells: MLO-Y4
T1 sequence (P41216 1-699): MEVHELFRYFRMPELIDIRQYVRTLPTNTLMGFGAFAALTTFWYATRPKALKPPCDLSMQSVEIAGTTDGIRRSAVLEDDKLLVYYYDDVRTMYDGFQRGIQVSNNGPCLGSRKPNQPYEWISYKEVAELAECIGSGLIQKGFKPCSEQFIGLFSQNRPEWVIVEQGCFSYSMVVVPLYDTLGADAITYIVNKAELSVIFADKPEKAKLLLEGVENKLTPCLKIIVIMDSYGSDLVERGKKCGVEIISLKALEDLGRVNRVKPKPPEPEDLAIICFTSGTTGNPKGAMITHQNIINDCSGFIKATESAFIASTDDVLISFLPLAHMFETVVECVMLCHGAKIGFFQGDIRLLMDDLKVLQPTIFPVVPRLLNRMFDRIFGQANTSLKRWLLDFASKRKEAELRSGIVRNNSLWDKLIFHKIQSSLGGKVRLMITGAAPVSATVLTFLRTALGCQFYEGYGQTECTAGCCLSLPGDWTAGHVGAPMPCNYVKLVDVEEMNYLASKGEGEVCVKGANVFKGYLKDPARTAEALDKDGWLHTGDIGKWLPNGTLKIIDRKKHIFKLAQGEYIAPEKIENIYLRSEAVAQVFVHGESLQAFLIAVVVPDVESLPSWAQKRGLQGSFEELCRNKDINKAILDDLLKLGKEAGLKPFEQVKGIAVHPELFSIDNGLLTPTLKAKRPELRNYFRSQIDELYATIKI
Assay: Crosslinking/co-immunoprecipitation/mass spectrometry (TMT quantitative proteomics) to identify irisin receptors
Assay type: binding
Settings: co-precipitated protein Acsl1 (ACSL1_MOUSE)
Summary of the method: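 Mouse MLO-Y4 cells were switched to serum-free FreeStyle medium for 4 h, chilled, then exposed to 10 nM His-tagged irisin (or adipsin as control) for 20 min. Cells were crosslinked with 1.5 mM DTSSP (30 min, ice), and bound proteins were pulled down on Ni-NTA and eluted with 250 mM imidazole. Eluates were separated by SDS-PAGE, trypsin-digested in gel, TMT 6-plex labelled and quantified by MS3-based LC-MS/MS on an Orbitrap Fusion Lumos.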

- TMT signal-to-noise ratio: 361.33
Substance: adipsin
